This passage reports kcat/Km, Km and kcat results from ChEMBL document CHEMBL1212722, “Designer enzymes for glycosphingolipid synthesis by directed evolution” (Nat Chem Biol, 2009).

Positions count from the first letter of the chain named. Names may count otherwise.

Substrate in series [1]: CCCCCCCCCCCCC/C=C/[C@@H](O)[C@@H](N)CO
As to the kind of experiment: (§1) Ratio of Kcat to Km of Activity of Rhodococcus sp. M777 Endoglycoceramidase 2 V269I G370R mutant.

Substrate in series [2]: CC(=O)N[C@H]1[C@H](O[C@@H]2[C@H](O[C@]3(C(=O)O)C[C@H](O)[C@@H](NC(C)=O)[C@H]([C@@H](O)[C@@H](O)CO)O3)[C@@H](O)[C@H](O[C@H]3[C@H](O)[C@@H](O)[C@@H](F)O[C@@H]3CO)O[C@@H]2CO)O[C@H](CO)[C@H](O)[C@@H]1O[C@@H]1O[C@H](CO)[C@H](O)[C@H](O)[C@H]1O
The series is described as §1.

Substrate in series [3]: CCCCCCCCCCCCC/C=C/[C@@H](O)[C@@H](N)CO
As to the kind of experiment: (§2) Activity of Rhodococcus sp. M777 Endoglycoceramidase 2 V269I G370R mutant.

Substrate in series [4]: CC(=O)N[C@H]1[C@H](O[C@@H]2[C@H](O[C@]3(C(=O)O)C[C@H](O)[C@@H](NC(C)=O)[C@H]([C@@H](O)[C@@H](O)CO)O3)[C@@H](O)[C@H](O[C@H]3[C@H](O)[C@@H](O)[C@@H](F)O[C@@H]3CO)O[C@@H]2CO)O[C@H](CO)[C@H](O)[C@@H]1O[C@@H]1O[C@H](CO)[C@H](O)[C@H](O)[C@H]1O
The description is as §2.

Substrate in series [5]: CCCCCCCCCCCCC/C=C/[C@@H](O)[C@@H](N)CO
As to the kind of experiment: (§3) Activity of Rhodococcus sp. M777 Endoglycoceramidase 2 A153T mutant.

Substrate in series [6]: CC(=O)N[C@H]1[C@H](O[C@@H]2[C@H](O[C@]3(C(=O)O)C[C@H](O)[C@@H](NC(C)=O)[C@H]([C@@H](O)[C@@H](O)CO)O3)[C@@H](O)[C@H](O[C@H]3[C@H](O)[C@@H](O)[C@@H](F)O[C@@H]3CO)O[C@@H]2CO)O[C@H](CO)[C@H](O)[C@@H]1O[C@@H]1O[C@H](CO)[C@H](O)[C@H](O)[C@H]1O
Described as §3.

Substrate in series [7]: CCCCCCCCCCCCC/C=C/[C@@H](O)[C@@H](N)CO
As to the kind of experiment: (§4) Ratio of Kcat to Km of Activity of Rhodococcus sp. M777 Endoglycoceramidase 2 A153T mutant.

Substrate in series [8]: CC(=O)N[C@H]1[C@H](O[C@@H]2[C@H](O[C@]3(C(=O)O)C[C@H](O)[C@@H](NC(C)=O)[C@H]([C@@H](O)[C@@H](O)CO)O3)[C@@H](O)[C@H](O[C@H]3[C@H](O)[C@@H](O)[C@@H](F)O[C@@H]3CO)O[C@@H]2CO)O[C@H](CO)[C@H](O)[C@@H]1O[C@@H]1O[C@H](CO)[C@H](O)[C@H](O)[C@H]1O
Described as §4.

Substrate in series [9]: CCCCCCCCCCCCC/C=C/[C@@H](O)[C@@H](N)CO
Briefly: (§5) Ratio of Kcat to Km of Activity of Rhodococcus sp. M777 Endoglycoceramidase 2 G370E mutant.

Substrate in series [10]: CC(=O)N[C@H]1[C@H](O[C@@H]2[C@H](O[C@]3(C(=O)O)C[C@H](O)[C@@H](NC(C)=O)[C@H]([C@@H](O)[C@@H](O)CO)O3)[C@@H](O)[C@H](O[C@H]3[C@H](O)[C@@H](O)[C@@H](F)O[C@@H]3CO)O[C@@H]2CO)O[C@H](CO)[C@H](O)[C@@H]1O[C@@H]1O[C@H](CO)[C@H](O)[C@H](O)[C@H]1O
The description is as §5.

Substrate in series [11]: CCCCCCCCCCCCC/C=C/[C@@H](O)[C@@H](N)CO
Briefly: (§6) Activity of Rhodococcus sp. M777 Endoglycoceramidase 2 G370E mutant.

Substrate in series [12]: CC(=O)N[C@H]1[C@H](O[C@@H]2[C@H](O[C@]3(C(=O)O)C[C@H](O)[C@@H](NC(C)=O)[C@H]([C@@H](O)[C@@H](O)CO)O3)[C@@H](O)[C@H](O[C@H]3[C@H](O)[C@@H](O)[C@@H](F)O[C@@H]3CO)O[C@@H]2CO)O[C@H](CO)[C@H](O)[C@@H]1O[C@@H]1O[C@H](CO)[C@H](O)[C@H](O)[C@H]1O
The series is described as §6.

Substrate in series [13]: CCCCCCCCCCCCC/C=C/[C@@H](O)[C@@H](N)CO
Briefly: (§7) Ratio of Kcat to Km of Activity of Rhodococcus sp. M777 Endoglycoceramidase 2 R177H mutant.

Substrate in series [14]: CC(=O)N[C@H]1[C@H](O[C@@H]2[C@H](O[C@]3(C(=O)O)C[C@H](O)[C@@H](NC(C)=O)[C@H]([C@@H](O)[C@@H](O)CO)O3)[C@@H](O)[C@H](O[C@H]3[C@H](O)[C@@H](O)[C@@H](F)O[C@@H]3CO)O[C@@H]2CO)O[C@H](CO)[C@H](O)[C@@H]1O[C@@H]1O[C@H](CO)[C@H](O)[C@H](O)[C@H]1O
Described as §7.

Substrate in series [15]: CCCCCCCCCCCCC/C=C/[C@@H](O)[C@@H](N)CO
As to the kind of experiment: (§8) Activity of Rhodococcus sp. M777 Endoglycoceramidase 2 R177H mutant.

Substrate in series [16]: CC(=O)N[C@H]1[C@H](O[C@@H]2[C@H](O[C@]3(C(=O)O)C[C@H](O)[C@@H](NC(C)=O)[C@H]([C@@H](O)[C@@H](O)CO)O3)[C@@H](O)[C@H](O[C@H]3[C@H](O)[C@@H](O)[C@@H](F)O[C@@H]3CO)O[C@@H]2CO)O[C@H](CO)[C@H](O)[C@@H]1O[C@@H]1O[C@H](CO)[C@H](O)[C@H](O)[C@H]1O
The series is described as §8.

Substrate in series [17]: CCCCCCCCCCCCC/C=C/[C@@H](O)[C@@H](N)CO
Briefly: (§9) Ratio of Kcat to Km of Activity of Rhodococcus sp. M777 Endoglycoceramidase 2 I276F mutant.

Substrate in series [18]: CC(=O)N[C@H]1[C@H](O[C@@H]2[C@H](O[C@]3(C(=O)O)C[C@H](O)[C@@H](NC(C)=O)[C@H]([C@@H](O)[C@@H](O)CO)O3)[C@@H](O)[C@H](O[C@H]3[C@H](O)[C@@H](O)[C@@H](F)O[C@@H]3CO)O[C@@H]2CO)O[C@H](CO)[C@H](O)[C@@H]1O[C@@H]1O[C@H](CO)[C@H](O)[C@H](O)[C@H]1O
Described as §9.

Substrate in series [19]: CCCCCCCCCCCCC/C=C/[C@@H](O)[C@@H](N)CO
Briefly: (§10) Activity of Rhodococcus sp. M777 Endoglycoceramidase 2 I276F mutant.

Substrate in series [20]: CC(=O)N[C@H]1[C@H](O[C@@H]2[C@H](O[C@]3(C(=O)O)C[C@H](O)[C@@H](NC(C)=O)[C@H]([C@@H](O)[C@@H](O)CO)O3)[C@@H](O)[C@H](O[C@H]3[C@H](O)[C@@H](O)[C@@H](F)O[C@@H]3CO)O[C@@H]2CO)O[C@H](CO)[C@H](O)[C@@H]1O[C@@H]1O[C@H](CO)[C@H](O)[C@H](O)[C@H]1O
The description is as §10.

B1: Endoglycoceramidase II (Rhodococcus sp), A0ACD6B832 V269I,G370R (protein)
chain: MRRTRLVSLIVTGSLVFGGGVAAAQSSLAASGSGSGSGTALTPSYLKDDDGRSLILRGFNTASSAKSAPDGMPQFTEADLAREYADMGTNFVRFLISWRSVEPAPGVYDQQYLDRVEDRVGWYAERGYKVMLDMHQDVYSGAITPEGNSGNGAGAIGNGAPAWATYMDGLPVEPQPRWELYYIQPGVMRAFDNFWNTTGKHPELVEHYAKAWRAVADRFADNDAVVAYDLMNEPFGGSLQGPAFEAGPLAAMYQRTTDAIRQVDQDTWICVAPQAIGVNQGLPSGLTKIDDPRAGQQRIAYCPHLYPLPLDIGDGHEGLARTLTDVTIDAWRANTAHTARVLGDVPIILGEFGLDTTLPGARDYIERVYRTAREMGAGVSYWSSDPGPWGPYLPDGTQTLLVDTLNKPYPRAVAGTPTEWSSTSDRLQLTIEPDAAITAPTEIYLPEAGFPGDVHVEGADVVGWDRQSRLLTVRTPADSGNVTVTVTPAA
What is called kcat/Km is the second-order rate constant that governs catalysis at low substrate concentration. In general, Km refers to the concentration of substrate that gives half-maximal velocity. By kcat is commonly meant the number of substrate molecules converted per active site and unit of time at saturation. As for B1, the specificity constant (kcat/Km) in series [1] came out at 542 M⁻¹ s⁻¹; in [2], 191 M⁻¹ s⁻¹. Further, the Km worked out at 480 µM in series [3] and 890 µM in series [4]. Also, the kcat in series [3] is 0.26 s⁻¹; in [4], 0.17 s⁻¹.

B2: Endoglycoceramidase II (Rhodococcus sp), A0ACD6B832 A153T (protein)
chain: B1 chain with A153T, I269V, R370G
Turning to B2, the figures for the Km in series [5] and in [6] were 460 µM and 420 µM, respectively. The catalytic constant (kcat) amounted to 0.2 s⁻¹ in [5] and 0.17 s⁻¹ in series [6]. Further, the results for the specificity constant (kcat/Km) in [7] and in series [8] were 435 M⁻¹ s⁻¹ and 405 M⁻¹ s⁻¹, respectively.

B3: Endoglycoceramidase II (Rhodococcus sp), A0ACD6B832 G370E (protein)
chain: B1 chain with I269V, R370E
On to B3, for which the kcat/Km was found to be 418 M⁻¹ s⁻¹ in [9] and 247 M⁻¹ s⁻¹ in series [10]. In addition, the Michaelis-Menten constant (Km) is 670 µM in series [11] and 850 µM in series [12]. The turnover number (kcat) in series [11] worked out at 0.28 s⁻¹; in series [12] it was 0.21 s⁻¹.

B4: Endoglycoceramidase II (Rhodococcus sp), A0ACD6B832 R177H (protein)
chain: B1 chain with R177H, I269V, R370G
Consider B4, for which the figures for the kcat/Km in series [13] and in series [14] were 353 M⁻¹ s⁻¹ and 188 M⁻¹ s⁻¹, respectively. In addition, the Km in series [15] stood at 170 µM; in series [16], 320 µM. Further, the catalytic constant (kcat) in series [15] and in series [16] was 0.06 s⁻¹ each time.

B5: Endoglycoceramidase II (Rhodococcus sp), A0ACD6B832 I276F (protein)
chain: B1 chain with I269V, I276F, R370G
For the protein B5, the kcat/Km was determined as 846 M⁻¹ s⁻¹ in series [17] and 86 M⁻¹ s⁻¹ in [18]. The values for the Km in series [19] and in [20] were 130 µM and 1300 µM, respectively. Moreover, the kcat in series [19] and in series [20] was 0.11 s⁻¹ each time.
